Laboratory results from patent US20090253152A1 (OREGON HEALTH AND SCIENCE UNIVERSITY, published 2009).
Ends that are not written are not given here.

Molecular target: T1, insulin-like growth factor I (IGF-I) (human, UniProt P05019 49-118, 125I-labelled in the ligand blots, affinity cross-linking and solution binding assay; unlabelled in BIAcore)
T1 construct: Human is stated only for the BIAcore material (rhIGF-I); also called rhIGF-I
Test: dot ligand blot: E. coli GST-fusion lysate dotted on nitrocellulose, probed with 125I-IGF-I; anti-GST dot immunoblot as loading control
Procedure: For dot blots, 2.5 μl of sample were dotted directly onto the nitrocellulose membrane. The membranes were then blocked for 1 h at 21° C. in 4% milk/TBS-T, followed by an overnight incubation at 4° C. with anti-IGFBP-3 monoclonal antibody (Diagnostic Systems Laboratories, Inc., Webster, Tex.), anti-GST polyclonal antibody (Amersham Pharmacia Biotech, Piscataway, N.J.), anti-PY20 monoclonal antibody (Santa Cruz Biotech, Santa Cruz, Calif.), or anti-IRS-1 polyclonal antibody (Upstate, Lake Placid, N.Y.), all at 1:3000 dilutions. Membranes were washed with TBS-T and incubated for 1 h at 21° C. with a 1:3000 dilution of horseradish peroxidase-linked antirabbit or antimouse IgG secondary antibodies (Amersham Pharmacia Biotech, Piscataway, N.J.). Proteins were detected by enhanced chemiluminescence reagents, according to the manufacturer's protocol (NEN Life Science Products, Boston, Mass.).
Lane 1, ⁽¹⁻⁴⁶⁾IGFBP-3; lane 2, ⁽¹⁻⁷⁵⁾IGFBP-3; lane 3, ⁽¹⁻⁸⁰⁾IGFBP-3; lane 4, ⁽¹⁻⁸⁷⁾IGFBP-3; lane 5, full-length IGFBP-3; lane 6, pGEX4T-1 vector alone. The binding of these IGFBP-3 “deletion” fragments to [¹²⁵I]-IGF-I is shown, along with wild-type IGFBP-3 binding, and control vector (pGEX4T-1) to [¹²⁵I]-IGF-I. For each protein sample, the protein extract was directly pipetted onto nitrocellulose paper, incubated in 1% BSA with [¹²⁵I]-IGF-I, and then exposed to film. […]

T1 sequence (P05019 49-118 limits assumed): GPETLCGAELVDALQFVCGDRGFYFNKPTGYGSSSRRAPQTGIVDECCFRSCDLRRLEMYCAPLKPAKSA

binding result: no binding
B1: (1-46)IGFBP-3 FLAG-tagged fragment, GST-fusion (E. coli) (other, human)
chain: GASSAGLGPVVRCEPCDARALAQCAPPPAVCAELVREPGCGCCLTCDYKDDDDK
modifications: cysteine pairing not given here; also: GST fusion with the vector's linker, linker sequence and fusion end not given here
notes: range 1-46; Tested as crude E. coli cell lysate; not shown: glutathione S-transferase encoded by vector pGEX4T-1, with the vector's linker
